Data as given in patent US8030048B2, “Enantioselective epoxide hydlrolase and method for preparing and enantiopure epoxide using the same” (Korea Ocean Research and Development Institute, priority 2005, dated 2011).
“And” between values parts separate entries of the source, which are not always exact repeats. Equal entries are not always repeated.

B1: sEEH: 49 kDa epoxide hydrolase purified from Sphingopyxis alaskensis, SEQ ID NO: 28 (protein, listed as Erythrobacter litoralis)
chain: MSPAKSISLRRLLSTAISVAALGMTLQSSPSFASSAGPSTAITVSAAAAVAAPQDESIRPFHVSIPEEALTDLRRRLAETRWPDREKVSDASQGVQLDRLEPLVRYWGTDYDWRKGEARLNAVPQFITTIDGLDIQFIHIRSKHKGAMPLLMTHGWPGSPFELLKTVGPLTDPTAHGGKAEDAFDLIMPTYPGYGFSGKPNEAWDPARVARAWDVLMKRLGYKNYVSQGGDWGAIISQVLAVQAPEGLLGIHTNMPGTVPPGVLKLVRAKQPAPDSYSPEEKIAYAGLETFYGKGFGYAEMMNTRPQTLGYGLSDSPVGLAAFLYEKIATWTDSGGNPESVLTRDEILDNITLYWLTNTGTSSSRSYWDAAQGPGGPFNAIEISKVPVAVTVFPGEIYRAPRSWGEKSFKKLIYWNEVDKGGHFAAWEQPELFAAEIRAAFRPLREKK
B2: Erythrobacter litoralis HTCC2594 epoxide hydrolase rEEH2 (EEH2), SEQ ID NO: 15 (Erythrobacter litoralis HTCC2594) (protein)
chain: MAGPSLGEWKAKAQHFAYDGLQIAFWTGGKPDARPLLLVHGYPTASWDWHRVWETLGSKYHLVAPDMIGFGLSDKPRSGYSIHRQADMHVALLDHLGIGAFDALVHDYGVSVGQELLARRAERSAAQGLGQTVFLNGGIFPDQHRPRPIQKLGTSPLGFLVGLLTNREKFGRSFSEVFGPDTQPGAQELDEFWDLVSHNGGNRIMHKLLHYIADRKEHAERWFDALRIAQGDIGLINGALDPVSGRHAYEAWRERLPDARHHLIPTVGHYPQVEDPQTVSRVTLDWLAR
notes: soluble-EH-like alpha/beta hydrolase
B3: Erythrobacter litoralis HTCC2594 epoxide hydrolase rEEH3 (EEH3), SEQ ID NO: 17 (Erythrobacter litoralis HTCC2594) (protein)
chain: MPDPASGIAINRVPANGLEFEVAMAGEGDHLALMLHGFPELHFSWRHQMPLLAEMGYRVWAPNMRGYGETTRPTEVRDYALDHLTQDVAALIDASGATKVTLIAHDWGAIIAWYFAILKLRPLERLVIMNVPHPKVLQRELRRWEQIKKSWYVFFFQLPWLPEKRIGADSGKRIGELFAQTSCNPERFGPDVKAVYAAGAARPGAPRAMVNYYRAAMRHRDTIDPGDFRVDVPTLLVWGEEDVALNIRCTEGTEQWVPDITVKRLPNVSHWVQQDAPDEVNAILREWLPKPAPAS
notes: as for B2

Legend:
[1] = Optimum activity conditions of sEEH, nEEH and rEEH; type: biochemical
Experimental: After cloning the genes into pET-24a (+) expression vector, the vector was introduced into BL21-CondonPlus(DE3)-RP (Novagen), and then separated by SDS-PAGE. […] Also, the optimum activities of sEEH, nEEH, and rEEH occurred at neutral pH and mesophilic conditions (30 to 40° C.).

[2] = Enantioselective hydrolyzing activity of purified EHases toward SO; type: biochemical; settings: for enantiomer preference in hydrolysis of styrene oxide, in words: purified enzyme; for Hydrolysis rate SO (R): (R)-enantiomer; for Hydrolysis rate SO (S): (S)-enantiomer
Experimental: (§1) Kinetic parameters of the rEEH1, rEEH2, rEEH3, sEEH, nEEH, and rEEH were determined by a GC analysis using (R)- or (S)- styrene oxide substrate. 100 ul of purified EHases were mixed with various concentrations of (R)- or (S)- styrene oxide in a 10 ml tube containing 1 ml of potassium phosphate buffer (100 mM, pH 8.0), and shake-incubated at 200 rpm and a temperature of 30° C. The extraction mixtures were extracted with 2 ml of hexane, and enantiomeric excess [ee; ee=100×(S−R)/(S+R)] toward enantiopure styrene oxide was analyzed with a chiraldex gamma-cyclodextrin trifluoroacetyl(G-TA) capillary GC column. Wherein, the FIG. 8 was diagramed with GC analysis for the hydrolyzing activities of enantioselective EHases (rEEH1, rEEH2, and rEEH3) toward racemic styrene oxide.
(§2) Kinetic parameters were estimated by non-linear regression analysis using a Sigma Plot program, and various substrates as depicted in FIG. 1 were also tested for the enantioselective hydrolyzing activity by rEEH1, rEEH2, rEEH3, sEEH, nEEH, and rEEH.

[3] = Effects of pH and temperature on the EHase activity of rEEH1, rEEH2 and rEEH3; type: biochemical; settings: for optimum temperature (maximum hydrolysis rate): 10 to 70° C. at pH 7.5; for optimum pH: activity toward styrene oxide, pH 4.0 to 10.0
Experimental: The effect of pH on the EHase activity was measured with 50 mM sodium acetate-acetic acid buffer (pH 4.0 and 6.0), 50 mM MES buffer (pH 6.0 to 7.0), 50 mM Phosphate buffer (pH 7.0 to 9.0), and 50 mM Glycine buffer (pH 9.0 and 10.0), and the optimum reaction temperature on the EHase activity was measured over a temperature of range from 10 to 70° C. at pH 7.5.

[4] = Kinetic parameters of purified EHases by GC analysis, (S)-styrene oxide; type: biochemical; settings: (S)-enantiomer of styrene oxide, Table 5
Experimental: as §1, §2

[5] = Kinetic parameters of purified EHases by GC analysis, (R)-styrene oxide; type: biochemical; settings: (R)-enantiomer of styrene oxide, Table 5
Experimental: as §1, §2

[6] = Enantioselective hydrolyzing activity of purified EHases toward GPE; type: biochemical; settings: for Hydrolysis rate GPE (R): (R)-enantiomer; for Hydrolysis rate GPE (S): (S)-enantiomer
Experimental: as §1, §2

[7] = Enantioselective hydrolyzing activity of purified EHases toward EX; type: biochemical; settings: for Hydrolysis rate EX (R): (R)-enantiomer; for Hydrolysis rate EX (S): (S)-enantiomer
Experimental: as §1, §2

[8] = Enantioselective hydrolyzing activity of purified EHases toward EB; type: biochemical; settings: for Hydrolysis rate EB (R): (R)-enantiomer; for Hydrolysis rate EB (S): (S)-enantiomer
Experimental: as §1, §2

[9] = Enantioselective hydrolyzing activity of purified EHases toward ECH; type: biochemical; settings: for Hydrolysis rate ECH (R): (R)-enantiomer; for Hydrolysis rate ECH (S): (S)-enantiomer
Experimental: as §1, §2

[10] = substrate: c1ccc([C@@H]2CO2)cc1; test: Kinetic parameters of purified rEEH2 by GC analysis with (R)- or (S)-styrene oxide; type: biochemical, Erythrobacter litoralis HTCC2594; settings: other: 100 mM potassium phosphate pH 8.0, 30° C.
Experimental: as §1, §2

[11] = substrate: c1ccc([C@H]2CO2)cc1; test: as above; type: biochemical, Erythrobacter litoralis HTCC2594; settings: other: 100 mM potassium phosphate pH 8.0, 30° C.
Experimental: as §1, §2

[12] = Substrate selectivity of rEEH1, rEEH2 and rEEH3 toward various epoxide substrates; type: biochemical; settings: purified enzyme
Experimental: Also, the substrate selectivity of rEEH1, rEEH2 and rEEH3 toward various epoxide substrates depicted in FIG. 1 was same to Table 4.
as §2

[13] = substrate: c1ccc([C@@H]2CO2)cc1; test: Kinetic parameters of purified rEEH3 by GC analysis with (R)- or (S)-styrene oxide; type: biochemical, Erythrobacter litoralis HTCC2594; settings: other: 100 mM potassium phosphate pH 8.0, 30° C.
Experimental: as §1, §2

[14] = substrate: c1ccc([C@H]2CO2)cc1; test: as above; type: biochemical, Erythrobacter litoralis HTCC2594; settings: other: 100 mM potassium phosphate pH 8.0, 30° C.
Experimental: as §1, §2

Row | Molecule | enantiomer preference in hydrolysis of styrene oxide, in words [2] | optimum temperature (maximum hydrolysis rate) [3] [°C] | optimum pH [3] | kcat Km [4] [M⁻¹ s⁻¹] | kcat Km [5] [M⁻¹ s⁻¹] | Hydrolysis rate SO (R) [2] | Hydrolysis rate SO (S) [2] | Hydrolysis rate GPE (R) [6] | Hydrolysis rate GPE (S) [6] | Hydrolysis rate EX (R) [7] | Hydrolysis rate EX (S) [7] | Hydrolysis rate EB (R) [8] | Hydrolysis rate EB (S) [8] | Hydrolysis rate ECH (R) [9] | Hydrolysis rate ECH (S) [9] | further results
1 | B1 | not enantioselective |  |  |  |  |  |  |  |  |  |  |  |  |  |  | optimum pH [1]: neutral pH
2 | B2 | both of (S)-styrene oxide and (R)-styrene oxide were hydrolyzed at an equal rate | 55 | 7.5 | 200 | 300 | 0.05 (×10^−2) mg/min | 0.06 (×10^−2) mg/min | 0.06 (×10^−2) mg/min | 0.07 (×10^−2) mg/min | 0.07 (×10^−2) mg/min | 0.07 (×10^−2) mg/min | 0.08 (×10^−2) mg/min | 0.08 (×10^−2) mg/min | 0.23 (×10^−2) mg/min | 0.23 (×10^−2) mg/min | Km [10]: 5.49 mM and 5.4 mM; Vmax [10]: 0.11 µmol/min and 0.1 µmol/min; kcat [10]: 1.6 s⁻¹; Km [11]: 6.18 mM and 6.1 mM; Vmax [11]: 0.12 µmol/min and 0.1 µmol/min; kcat [11]: 1.7 s⁻¹
3 | B3 | (S)-styrene oxide was hydrolyzed faster than (R)-styrene oxide | 45 | 8.0 | 1700 | 1600 | 0.10 (×10^−2) mg/min | 0.14 (×10^−2) mg/min | 0.10 (×10^−2) mg/min | 0.10 (×10^−2) mg/min | 0.17 (×10^−2) mg/min | 0.09 (×10^−2) mg/min | 0.08 (×10^−2) mg/min | 0.11 (×10^−2) mg/min | 0.26 (×10^−2) mg/min | 0.28 (×10^−2) mg/min | substrate selectivity, in words [12]: hydrolyzed enantioselectively aliphatic epoxides at C-1 position and styrene oxide; Km [13]: 2.61 mM and 2.6 mM; Vmax [13]: 0.29 µmol/min and 0.2 µmol/min; kcat [13]: 4.3 s⁻¹; Km [14]: 3.71 mM and 3.7 mM; Vmax [14]: 0.43 µmol/min and 0.4 µmol/min; kcat [14]: 6.5 s⁻¹
